No end group written: not given here.
T1: human gastrin/CCK-B receptor (human, UniProt P32239 1-447)
T1 construct: Permanently expressed with arrestin-GFP in HEK-293 cells (Clone A); also called gastrin receptor; homo sapiens cholecystokinin B receptor
T1 sequence: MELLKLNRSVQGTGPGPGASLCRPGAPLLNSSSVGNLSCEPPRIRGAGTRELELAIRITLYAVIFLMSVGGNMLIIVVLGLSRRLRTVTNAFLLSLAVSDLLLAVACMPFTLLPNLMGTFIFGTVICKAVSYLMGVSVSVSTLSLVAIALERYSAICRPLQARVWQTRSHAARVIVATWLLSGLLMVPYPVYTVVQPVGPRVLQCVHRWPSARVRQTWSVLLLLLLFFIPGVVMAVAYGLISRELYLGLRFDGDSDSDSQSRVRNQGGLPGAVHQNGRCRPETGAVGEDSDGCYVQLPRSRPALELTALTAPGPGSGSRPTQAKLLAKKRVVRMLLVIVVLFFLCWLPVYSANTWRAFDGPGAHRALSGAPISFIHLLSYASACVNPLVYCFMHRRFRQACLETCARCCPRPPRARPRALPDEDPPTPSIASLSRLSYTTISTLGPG


Legend:
[1] = molecular target: T1, human gastrin/CCK-B receptor; test: cell-based or functional assay
[2] = molecular target: T1, human gastrin/CCK-B receptor; test: competitive displacement of [3H]CCK-8 from Clone A by hG17
Experimental: (§1) Membrane Preparation/Binding—All steps were performed at 4° C. Membrane binding was performed in triplicate as described in Shetzline et al., J. Biol. Chem. 273:[…] (1998). Membrane fractions were assayed immediately or stored at −80° C. […] Data were analyzed using Graph Pad-Prism.
(§2) Data are presented as mean±SEM.

[3] = molecular target: T1, human gastrin/CCK-B receptor; test: derived from competitive displacement of [3H]CCK-8 from Clone A by hG17
Experimental: as §1, §2

arrestin-GFP translocation (TI/TF, two hours at 37° C.) [1] | EC50 [2] | Kd [3] | Molecule
2.4 nM |  |  | pentagastrin (peptide)
 | 28 nM | 17 nM | QGPWLEEEEEAYGWMDF-NH2 (peptide, UniProt P01350 76-92, looked up, domain: gastrin-17; also called hGl 7) [synthetic human gastrin-17 peptide (hG17)]

— patent US20090075314A1 (DUKE UNIVERSITY, published 2009)
